These results are taken from publication PMC5300155, “Biochemical and biophysical investigations of the interaction between human glucokinase and pro-apoptotic BAD” (PLoS ONE, 2017).

The term IC50 denotes the concentration needed to halve the response being measured. Low values mean greater potency in that assay, high ones weaker potency in that assay.

“Also recorded” adds a separate entry of the source.

Data set [1] addresses T1, GCK (Homo sapiens, UniProt P35557).
T1 construct: hexahistidine (N); made in house; host or cells: glucokinase auxotroph BM5340(DE3)
T1 sequence (P35557 1-465): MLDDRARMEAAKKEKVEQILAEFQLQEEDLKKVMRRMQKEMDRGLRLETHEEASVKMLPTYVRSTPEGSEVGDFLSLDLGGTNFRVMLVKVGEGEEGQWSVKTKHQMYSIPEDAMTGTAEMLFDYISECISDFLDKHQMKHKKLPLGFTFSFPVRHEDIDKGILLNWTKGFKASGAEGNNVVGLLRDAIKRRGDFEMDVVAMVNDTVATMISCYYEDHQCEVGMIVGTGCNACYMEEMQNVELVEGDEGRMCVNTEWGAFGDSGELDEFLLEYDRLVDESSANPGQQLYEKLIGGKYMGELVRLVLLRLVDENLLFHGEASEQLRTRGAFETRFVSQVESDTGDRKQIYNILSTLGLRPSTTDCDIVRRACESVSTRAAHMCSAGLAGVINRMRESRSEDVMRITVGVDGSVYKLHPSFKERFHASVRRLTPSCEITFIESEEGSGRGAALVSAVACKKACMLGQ
The experiment in a line: Fluorescence polarization, binding of fluorescent BH3 peptides to GCK. The settings on record: phosphorylation at position of Ser-118; trifluoroethanol 20–40%; S1 Fig: 34 μM f-pBH3, 40% trifluoroethanol. The procedure:
(§1) Recombinant human pancreatic GCK containing an N-terminal hexahistidine tag was produced in the glucokinase auxotroph BM5340(DE3) and purified using a previously described procedure. TEV protease was expressed as a GST-fusion protein from a pGEX plasmid encoding the S219V variant, provided by David Waugh (Addgene plasmid 8827). Expression was induced with IPTG (1 mM) for 4 h at 30°C. Cell pellets were resuspended in Tris buffer (50 mM, pH 8.0) containing NaCl (100 mM), glycerol (10% v/v), benzamidine (1 mM) and dithiothreitol (10 mM) and lysed via French Press. Polyethyleneimine (0.1%) was added to the lysate and protein was purified on a glutathione-affinity column (GSTrap, GE Sciences). TEV protease was flash frozen and stored at -80°C for up to 1 month.
A fluorescence polarization assay developed by Zhang, et al. was utilized to measure interactions between BAD and its binding partners. Two 21-residue FITC-labeled peptides containing the BH3 domain of BAD were synthesized and purified to >95% by Peptide2.0 (f-BH3 = NLWAAQRYGRELRRMSDK(FITC)FVD; f-pBH3 = NLWAAQRYGRELRRM(p)SDK(FITC) FVD). Polarization was measured at room temperature with an excitation wavelength of 485 nm and an emission wavelength of 530 nm using a SpectraMax M5 microplate reader (Molecular Devices). […]
(In general: Polarisation of emitted light reports the rotation of a fluorescent probe.)

The next data set has as its target T2, Bcl-xL (Homo sapiens, UniProt Q07817, DEL45-84).
T2 construct: made in house
Briefly: Fluorescence polarization competition with f-BH3 for binding to Bcl-xL. The following applies: for IC50: competitor 0–50 μM, room temperature, 15 min. The procedure: Exon 1 of human bcl-xl lacking the C-terminal residues 189–233 was obtained from Stanley Korsmeyer (Addgene plasmid 8755) and site-directed mutagenesis was performed to create the Δ45–84, Δ210–233 variant. Bcl-xL was expressed and purified using a modified procedure described previously. Briefly, Bcl-xL was purified by nickel affinity chromatography and dialyzed against potassium phosphate buffer (20 mM, pH 7.4) containing NaCl (50 mM), EDTA (1 mM), and DTT (10 mM). Protein was applied to a Superdex 200 10/30 HR size-exclusion column, at a flow rate of 0.02 mL/min, to remove aggregate and oligomers prior to binding assays.
A fluorescence polarization assay developed by Zhang, et al. was utilized to measure interactions between BAD and its binding partners. Two 21-residue FITC-labeled peptides containing the BH3 domain of BAD were synthesized and purified to >95% by Peptide2.0 (f-BH3 = NLWAAQRYGRELRRMSDK(FITC)FVD; f-pBH3 = NLWAAQRYGRELRRM(p)SDK(FITC) FVD). Polarization was measured at room temperature with an excitation wavelength of 485 nm and an emission wavelength of 530 nm using a SpectraMax M5 microplate reader (Molecular Devices). Experiments to measure binding constants of the fluorescent peptides to Bcl-xL or GCK were performed in black 96-well plates. Each well contained 15 nM peptide, 60 μL BAD buffer (0.1 M Tris, 0.1 M KCl, 0.5 M arginine, 2.5 mM CHAPS, 5 mM TCEP, 10% glycerol, pH 8.5) and variable concentrations of Bcl-xL (0–2.25 μM) or GCK (0–400 μM) in assay buffer (20 mM phosphate buffer, pH 7.4, 1 mM EDTA, 50 mM NaCl, 10 mM DTT) in a final volume of 120 μL. High GCK concentrations were chosen in an effort to detect a signal indicating a binding event. Assays containing GCK also contained 250 mM glucose. […] Plates were incubated at room temperature in the dark for 15 min prior to polarization measurements.

Data set [2] addresses T3, human pancreatic GCK (Homo sapiens, UniProt P35557).
T3 construct: hexahistidine (N); made in house; host or cells: glucokinase auxotroph BM5340(DE3)
T3 sequence (P35557 1-465): T1 sequence (P35557 1-465)
Briefly: GCK activity, G6PDH-linked assay (lab's routine assay, 25°C). The format is biochemical. The protocol: as §1
GCK activity was assayed using a glucose 6-phosphate dehydrogenase (G6PDH)-linked assay at 25°C. 50 nM GCK was assayed in buffer containing HEPES (100 mM, pH 7.4), KCl (50 mM), NADP^+ (0.5 mM), DTT (10 mM), MgCl2 (7 mM), G6PDH (1.5 U) and glucose (0–100 mM) in a total volume of […]. Addition of ATP (6 mM) initiated the reaction. Production of NADPH was measured at 340 nm. To determine the effect of BAD on GCK activity, 5 μL of BAD or buffer control was added to the reaction in a final volume of 100 μL. K0.5 values were determined by fitting to the Hill equation. The effect of BAD on GCK activity is reported as the percent rate increase at individual glucose concentrations, calculated as the average of a minimum of four rates of BAD-containing assays divided by the average of rates of BAD buffer-containing assays. The results represent the average of at least three independent preparations of pure BAD.

Data set [3] in a line: Circular dichroism spectroscopy (secondary structure). The format is physicochemical. The settings on record: relative to (unmodified) BAD-GST, 25°C, pH 7.8. The protocol:
Proteins were dialyzed overnight into potassium phosphate buffer (50 mM, pH 7.8) containing KCl (50 mM), glycerol (5% v/v), and TCEP (4 mM). CD spectra were recorded on an AVIV 202 CD spectrometer at 25°C with protein concentrations ranging from 3–15 μM. Spectra were recorded from 200–260 nm in 10 mm pathlength cuvettes using a 1 nm step resolution and 3 s integration time. Three scans were recorded per sample, averaged, and baseline subtracted with appropriate buffer controls. CD signals were converted to molar ellipticity and deconvoluted using CDPro Software.
Background: Circular dichroism is the unequal absorption of left and right circularly polarised light.

In a further data set the test system is BAD-deficient islets. The settings on record: ref [8]; cited from earlier work. The source says:
The mitochondrial complex fails to form in the absence of BAD, resulting in reduced glucose-driven oxygen consumption and impaired GSIS in β-cells. […] In hepatocytes, BAD deficiency results in insulin resis ...

Data set [4] relates to GCK. The following applies: rabbit reticulocyte lysates; ref [8]; cited from earlier work. An excerpt:
Several lines of evidence support a direct interaction between GCK and BAD. […] Kinetic assays re ... || The first indication of a putative interaction between full-length BAD and GCK came from the observation that both proteins co-localize with one another in a macromolecular complex purified from mouse hepatocyte mitochondrial extracts. […] In contrast to these experiments, our study utilizes active, highly purified homogeneous preparations of both proteins. The biochemical and biophysical e ...

Data set [5] deals with T3, human pancreatic GCK. Briefly: Analytical ultracentrifugation sedimentation velocity of equimolar mixtures with GCK. The format is binding. The settings on record: equimolar mixture, BAD buffer pH 8.5, 20°C, 50,000 x g. The procedure: (§2) Sedimentation velocity experiments were conducted with an Optima XLI Ultracentrifuge (Beckman Coulter) using a four-hole rotor with three 420 μL samples in standard double-sector Epon centerpieces equipped with sapphire windows. Absorbance and interference data were collected simultaneously. Size-exclusion purified proteins were concentrated to OD280 nm = 0.3–1.0 prior to centrifugation. For complex formation, proteins were mixed in a 1:1 molar ratio in BAD buffer (0.1 M Tris, 0.1 M KCl, 0.5 M arginine, 2.5 mM CHAPS, 5 mM TCEP, 10% glycerol, pH 8.5) and incubated on ice 30 min prior to the start of the experiment. Experiments were carried out at 20°C and 50,000 x g. Data were analyzed with Ultrascan III software using a minimum of 70 scans per sample for analysis. Van Holde-Weischet analysis was performed to obtain S20,W values.

Data set [6] is described as follows: Analytical ultracentrifugation sedimentation velocity (oligomerization, shape). The following applies: sedimentation velocity, 20°C, 50,000 x g; unity = compact sphere. The format is physicochemical. The protocol:
as §2

Data set [7] can be described thus: Isoelectric focusing of phosphorylated BAD-GST. The format is physicochemical. The following applies: IEF, IPG strips pH 4–7; four distinct populations. The protocol: Recombinant BAD-GST was phosphorylated with PKAc after refolding. 1 unit PKAc was added to 10 units BAD-GST and the reaction was dialyzed against BAD refolding buffer (0.1 M Tris, 0.1 M KCl, 0.2 M arginine, 2.5 mM CHAPS, 5 mM DTT, 10% glycerol, pH 8.5) containing ATP (3 mM) and MgCl2 (20 mM). Reactions were carried out at 4°C overnight. PKAc and excess ATP were removed from BAD-GST via glutathione-affinity chromatography (GSTrap, GE Healthcare). The extent of phosphorylation was established via mass spectrometry and 2D-IEF-SDS-PAGE using ReadyStrip IPG strips (Bio-Rad) with a pH range of 4–7. pET28badgst was subjected to site-directed mutagenesis to remove sites of phosphorylation (Ser-to-Ala) or to incorporate phosphorylation mimics (Ser-to-Asp) using the QuikChange™ Site-directed mutagenesis kit (Stratagene).

T2 sequence (Q07817 with tags, fused parts or gaps DEL45-84): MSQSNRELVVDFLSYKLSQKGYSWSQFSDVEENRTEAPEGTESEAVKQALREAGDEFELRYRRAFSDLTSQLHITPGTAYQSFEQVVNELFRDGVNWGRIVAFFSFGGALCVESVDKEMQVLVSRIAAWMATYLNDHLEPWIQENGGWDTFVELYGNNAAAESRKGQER

For “NLWAAQRYGRELRRM(p)SDK(FITC) FVD [f-pBH3, 21-residue FITC-labeled phosphorylated peptide containing the BH3 domain of BAD]”, the “Binding to GCK, phosphorylated fluorescent peptide / trifluoroethanol” value at GCK [1] is reported as “does not affect f-pBH3 binding to GCK”.

B1: BAD: BAD following cleavage and removal of the GST tag (protein)
chain: MFQIPEFEPSEQEDSSSAERGLGPSPAGDGPSGSGKHHRQAPGLLWDASHQQEQPTSSSHHGGAGAVEIRSRHSSYPAGTEDDEGMGEEPSPFRGRSRSAPPNLWAAQRYGRELRRMSDEFVDSFKKGLPRPKSAGTATQMRQSSSWTRVFQSWWDRNLGRGSSAPSQ
modifications: left off: His6, N-terminal, state not stated | GST, C-terminal, kept
Turning to B1, the IC50 with Bcl-xL (200 nM f-BH3, 50 nM Bcl-xL) turned out to be 440 nM. In addition, the “Increase in GCK activity, GST tag removed” value in the data set with human pancreatic GCK [2] (0.5, 0.78 and 1.0 mM glucose, data not shown) is reported as 7–12%. The “CD comparison (in words)” value in data set [3] is “nearly identical”. Also, the “Effect on impaired insulin response or GSIS of BAD-deficient islets” value in the data set on BAD-deficient islets is reported as “restores GSIS”. Besides, the “Coimmunoprecipitation with GCK” value in the data set with GCK [4] is on record as “co-immunoprecipitates with GCK; also recorded: can coimmunoprecipitate with GCK”.

B2: phosphorylated BAD-GST: BAD-GST phosphorylated in vitro with PKAc at S75, S99, S118 (protein)
chain: B1 chain
modifications: phosphoserine at 75, 99 and 118 (all three sites found by mass spectrometry; four populations by isoelectric focusing); left off: His6, N-terminal, state not stated | GST, C-terminal, kept
notes: BAD-GST phosphorylated in vitro with PKAc at S75, S99, S118
Molecule B2 yielded a 50% inhibitory concentration (IC50) with Bcl-xL (200 nM f-BH3, 50 nM Bcl-xL) not below 1600 nM. In addition, the “Competition with f-BH3 binding to Bcl-xL (in words)” value with Bcl-xL (200 nM f-BH3, 50 nM Bcl-xL, GST up to 10 μM, BAD-GST phosphorylated by PKA) is “abrogrates the protein’s ability to compete with f-BH3”. Moreover, in the data set with Bcl-xL (ITC and fluorescence polarization assays), the “Ability to interact with Bcl-xL (in words)” value was “significantly impaired in their ability to interact with Bcl-xL”. The “Complex with GCK by analytical ultracentrifugation” value with human pancreatic GCK [5] is listed as “no evidence of a higher molecular weight complex”. Also, the “Increase in GCK activity over unmodified BAD-GST” value with human pancreatic GCK [2] (1.0 mM glucose, BAD-GST phosphorylated by PKA) was determined as 5%. Further, in the data set with human pancreatic GCK [2] (Fig 6A, GCK alone: H = 1.7), the “Hill coefficient H of GCK in presence of pBAD-GST” value worked out at 1.6. In addition, the “K0.5 (glucose) of GCK in presence of pBAD-GST” value with human pancreatic GCK [2] (Fig 6A, GCK alone: K0.5 = 8.6 mM, Hill equation fit) stood at 8.8 mM. The “kcat of GCK in presence of pBAD-GST” value with human pancreatic GCK [2] (Fig 6A, GCK alone: kcat = 38.1 s^-1) amounted to 38.4 s^-1. The “Difference in effect on GCK activity, phosphorylated versus unmodified BAD-GST” value with human pancreatic GCK [2] (all glucose concentrations other than 1.0 mM) is on record as “no statistical difference”. Further, in the data set with human pancreatic GCK [2] (glucose below K0.5, phosphorylated BAD > 2 μM), the “Maximum increase in GCK activity” value amounted to 15%. In addition, the “CD comparison (in words)” value in [3] was “a higher degree of α-helical content compared to unmodified BAD-GST”. For the same molecule, the “Frictional ratio f/f0” value in data set [6] turned out to be 3.1. For the same molecule, the pI values in data set [7] is given as 4–7.
